From publication PMC4307304, “The Oxidative Fermentation of Ethanol in Gluconacetobacter diazotrophicus Is a Two-Step Pathway Catalyzed by a Single Enzyme: Alcohol-Aldehyde Dehydrogenase (ADHa)” (International Journal of Molecular Sciences, 2015)

Experiments:
[1] = substrate: CCO; assay: purified protein; conditions: quinone analogue Q1 or Q2 100 uM, pH 6.0 phosphate, 30 °C, Triton X-100
[2] = substrate: CC=O; assay: oxygen consumption (Clark electrode), oxidase activity of purified ADHa coupled to ADH-deficient Ga. diazotrophicus membranes; format: biochemical, Gluconacetobacter diazotrophicus; conditions: quinone analogue Q1 or Q2 100 uM, pH 6.0 phosphate, 30 °C, Triton X-100, text b13 calls the acetaldehyde constants of both assays the same, although the table prints 3.7 × 10^−4 for the dehydrogenase
Text: oxygen consumption (Clark electrode), oxidase activity of purified ADHa coupled to ADH-deficient Ga. diazotrophicus membranes on ADHa

B1: ADHa (Gluconacetobacter diazotrophicus PA1 5) (protein)
chain: ESEFGATGEAIIHADDHPGDWLTYGRTYSEQRYSPLDQINRSNVGNLKLAWYYDLDTNRGQEGTPLIVDGVMYATTNWSKMKALDAATGKLLWAYDPRVPGNIADKGCCDTVNRGAAYWNGKVYFGTFDGRLIALDAKTGKLVWSVNTIPADAALGHQRSYTVDGAPRIAKGRVIIGNGGSEFGARGFVSAFDAETGKLDWRFYTVPNAQNKPDNAPSDAVLMSKAYPTWSPTGAWTTQGGGGTVWDSIVYDPVTDLVYLGVGNGSPWNYKFRSDGKGDNLFLGSIVALKPETGEYVWHFQETPMDQWDYTSVQQIMTLDLPINGQTRHVIVHAPKNGFFYIIDAKTGEFLSGKNYVYVNWASGLDPKTGRPIYNPDALYTLNGKEWYGIPGDLGGHNFAAMAFSPRTGLVYIPAQQVPFLYTSQVGGFKPHPDSWNLGLDMNKVGVTDSPEAKQAFIKDLKGWIVAWDPVKQQEAFRVDHKGPWNGGIVATGGDLLFQGLANGEFHAYDATNGADLFHFAAQSGIIAPPVTYMANGKQYVAVEVGWGGIYPFFLGGLARTSGWTVNHSRVIAFSLDGAAKLPPQNDKGFLPVKPPAQFDGKRTDNGYFEFQTFCAACHGDNAEAGGVLPDLRWSGAIRHQDAFYNVVGRGALTAYGMDRFDASMKPEQIEDIRQFLIKRSNDTYQREVDARKNVDGIPAQ
notes: native, purified from membranes with Triton X-100; heterodimer ~72 kDa (S-I) and ~44 kDa (S-II); with Alcohol dehydrogenase (quinone), cytochrome c subunit
For B1, which Km [1] is on record?
Its Km is 76 µM.

What about the kcat/Km [1] of the same protein?
Its kcat/Km is 1.8e+09 M⁻¹ s⁻¹.

What about the Km [2] of the same protein?
The Km was 1100 µM.

And the kcat/Km [2]?
The kcat/Km was 1e+08 M⁻¹ s⁻¹.
